B1: Fuc-TV: known human α1,3-fucosyltransferase, previously cloned, expressed in Namalwa cells (protein, UniProt Q11128 1-374, looked up)
4-galactosyl-N-acetylglucosami …: MDPLGPAKPQWLWRRCLAGLLFQLLVAVCFFSYLRVSRDDATGSPRPGLMAVEPVTGAPNGSRCQDSMATPAHPTLLILLWTWPFNTPVALPRCSEMVPGAADCNITADSSVYPQADAVIVHHWDIMYNPSANLPPPTRPQGQRWIWFSMESPSNCRHLEALDGYFNLTMSYRSDSDIFTPYGWLEPWSGQPAHPPLNLSAKTELVAWAVSNWKPDSARVRYYQSLQAHLKVDVYGRSHKPLPKGTMMETLSRYKFYLAFENSLHPDYITEKLWRNALEAWAVPVVLGPSRSNYERFLPPDAFIHVDDFQSPKDLARYLQELDKDHARYLSYFHWRETLRPRSFSWALAFCKACWKLQQESRYQTVRSIAAWFT
B2: Mouse Fuc-TIV: known mouse α1,3-fucosyltransferase expressed from pCDM8-mFT4 for comparison (protein, UniProt Q11127 1-433, looked up)
Alpha-(1,3)-fucosyltransferase …: MAPARQELQHESRCRPSRTVDAWRAAVATRGRHMETPGYRRRTRCGGWGLPRSVSSLAAVGLLCTALTTFICWGQLPPLPWASPAPQRLVGVLLWWEPFRGRGGYPKSPPDCSLRFNISGCRLLTDRAAYGEAQAVLFHHRDLVKELHDWPPPWGARERTDKALVLRVFDDQEGAVTLTGKALETVGSRPPGQRWVWMNFESPSHTPGLRGLAKDLFNWTLSYRTDSDVFVPYGFLYSRSDPTEQPSGLGPQLARKRGLVAWVVSNWNEHQARVRYYHQLSRHVSVDVFGRTGPGRPVPAIGLLHTVARYKFYLAFENSRHVDYITEKLWRNAFLAGAVPVVLGPDRANYERFVPRGAFIHVDDFPNAASLAAYLLFLDRNVAVYRRYFRWRRSFAVHITSFWDEQWCRTCQAVQTSGDQPKSIHNLADWFQR
B3: Human Fuc-TIII: known human α1,3-fucosyltransferase, previously cloned, used for comparison (protein, UniProt P21217 1-361, looked up)
3-galactosyl-N-acetylglucosami …: MDPLGAAKPQWPWRRCLAALLFQLLVAVCFFSYLRVSRDDATGSPRAPSGSSRQDTTPTRPTLLILLRTWPFHIPVALSRCSEMVPGTADCHITADRKVYPQADMVIVHHWDIMSNPKSRLPPSPRPQGQRWIWFNLEPPPNCQHLEALDRYFNLTMSYRSDSDIFTPYGWLEPWSGQPAHPPLNLSAKTELVAWAVSNWKPDSARVRYYQSLQAHLKVDVYGRSHKPLPKGTMMETLSRYKFYLAFENSLHPDYITEKLWRNALEAWAVPVVLGPSRSNYERFLPPDAFIHVDDFQSPKDLARYLQELDKDHARYLSYFRWRETLRPRSFSWALDFCKACWKLQQESRYQTVRSIAAWFT
B4: Human Fuc-TVI: known human α1,3-fucosyltransferase, previously cloned, used for comparison (protein, UniProt P51993 1-359, looked up)
4-galactosyl-N-acetylglucosami …: MDPLGPAKPQWSWRCCLTTLLFQLLMAVCFFSYLRVSQDDPTVYPNGSRFPDSTGTPAHSIPLILLWTWPFNKPIALPRCSEMVPGTADCNITADRKVYPQADAVIVHHREVMYNPSAQLPRSPRRQGQRWIWFSMESPSHCWQLKAMDGYFNLTMSYRSDSDIFTPYGWLEPWSGQPAHPPLNLSAKTELVAWAVSNWGPNSARVRYYQSLQAHLKVDVYGRSHKPLPQGTMMETLSRYKFYLAFENSLHPDYITEKLWRNALEAWAVPVVLGPSRSNYERFLPPDAFIHVDDFQSPKDLARYLQELDKDHARYLSYFRWRETLRPRSFSWALAFCKACWKLQEESRYQTRGIAAWFT
B5: Fuc-TVII: known human α1,3-fucosyltransferase, previously cloned, expressed in Namalwa cells (protein, UniProt Q11130 1-342, looked up)
Alpha-(1,3)-fucosyltransferase …: MNNAGHGPTRRLRGLGVLAGVALLAALWLLWLLGSAPRGTPAPQPTITILVWHWPFTDQPPELPSDTCTRYGIARCHLSANRSLLASADAVVFHHRELQTRRSHLPLAQRPRGQPWVWASMESPSHTHGLSHLRGIFNWVLSYRRDSDIFVPYGRLEPHWGPSPPLPAKSRVAAWVVSNFQERQLRARLYRQLAPHLRVDVFGRANGRPLCASCLVPTVAQYRFYLSFENSQHRDYITEKFWRNALVAGTVPVVLGPPRATYEAFVPADAFVHVDDFGSARELAAFLTGMNESRYQRFFAWRDRLRVRLFTDWRERFCAICDRYPHLPRSQVYEDLEGWFQA

Experiments:
[1] = Enzyme activity for a poly-N-acetyllactosamine sugar chain, Namalwa cell extract, HPLC; assay type: biochemical; details: substrate S; for Production (%) P1 / Production (%) P2 / Production (%) P3: relative value, total of products P1, P2 and P3 by each enzyme = 100%
From the text: Using a poly-N-acetyllactosamine sugar chain, it was examined that to which GlcNAc in the sugar chains, human Fuc-TIX and 5 types of human α1,3-fucosyltransferase (Fuc-TIII, Fuc-TIV, Fuc-TV, Fuc-TVI, and Fuc-TVII) that had been cloned so far transferred fucose.
Control plasmid (pAMo) and the human Fuc-TIX expression plasmid pAMo-FT9 were introduced into Namalwa cells according to the method shown in Example 1 (3), thereby obtaining stable transformants.
Namalwa cells expressing each of the other 5 types of human α1,3-fucosyltransferases (Fuc-TIII, Fuc-TIV, Fuc-TV, Fuc-TVI, and Fuc-TVII) were obtained according to the previous report (Glycoconjugate J., 13, 802-812, Biochem. Biophys. Res. Commun., 237, 131-137, 1997).
The resultant transformants (about 1×10^7) were collected in microtubes (1.5 ml, manufactured by Eppendolf), followed by centrifugation at 550×g for 7 minutes to collect the cells.
The collected cells were washed with 0.9 ml of PBS. The washed cells were suspended in 100 μl of a solution which consisted of 20 mM HEPES (pH 7.2) and 1% TrironX-100, then allowed to stand at 4° C. for 10 minutes. Subsequently the cells were disrupted using a ultrasonicator (Bioruptor; manufactured by COSMO BIO CO., LTD.)
After disruption of the cells, each supernatant was obtained by centrifugation at 550×g for 7 minutes and used as an enzyme sample. A poly-N-acetyllactosamine sugar chain (Galβ1-4GlcNAcβ1-3Galβ1-4GlcNAcβ1-3Galβ1-4GlcNAc) consisting of 6 sugars was fluorescently labeled with 2-aminobenzamide to make a sugar chain (Galβ1-4GlcNAcβ1-3Galβ1-4GlcNAcβ1-3Galβ1-4GlcNAc-2AB: abbreviated as S in FIGS. 13 and 15, and table 3), which was used as a substrate
Florescent labeling was performed using a Signal™ 2-AB glycan labeling kit (manufactured by Oxford GlycoScience). A poly-N-acetyllactosamine sugar chain (Galβ1-4GlcNAcβ1-3Galβ1-4GlcNAcβ1-3Galβ1-4GlcNAc) was prepared according to WO98/03524.
Samples were allowed to react in 20 μl of an assay solution [50 mM cacodylate (pH 6.8), 5 mM ATP, 10 mM L-fucose, 75 μM […] (manufactured by SIGMA), 25 mM MnCl2, 15 μM fluorescently labeled sugar chain substrate, 6 μl of the cell lysate above] at 37° C. for 2 hours, followed by treatment at 100° C. for 3 minutes to stop the reaction. Next 200 μl of water was added to the samples, and the supernatant was obtained by centrifugation at 10,000×g for 5 minutes. Using an aliquot of the supernatant (10 μl), products were analyzed by HPLC under the following conditions.
HPLC: • Column—TSK-gel ODS-80TsQA column (4.6×250 mm; TOSOH CORPORATION) • Eluate—0.02 M ammonium acetate (pH 4.0) containing 7% methanol • Elution temperature—50° C. • Flow rate—1.0 ml/min. • Detection—Fluorescence spectrum photometer FB-920 (manufactured by JASCO Corporation) (excitation wavelength: 330 nm, radiation wavelength: 420 nm)

[2] = In vitro α1,3-fucosyltransferase activity, COS-1 cell lysate, pyridylaminated substrate, HPLC; assay type: biochemical; details: activity of human Fuc-TVI for α2,3-sialylLNnT taken as 100; 25 μM substrate, 2 hours at 37° C.; normalized to transcript amount
Procedure: Each α1,3-fucosyltransferase expression plasmid (15 μg) was introduced into 1×10^7 COS-1 cells.
This introduction was performed by electroporation method using a gene pulser (manufactured by Bio-Rad) according to the Bio-Rad's instructional manual attached thereto. At this time, 1 μg of a luciferase expression vector, which was constructed by inserting β-actin promoter into a Hind III site of a vector pSVOA/L [Experimental Medicine, 7, 96, (1989)] was co-introduced as an index of gene transfer efficiency.
After the gene introduction, COS-1 cells were dispensed into three dishes for cell culture with a diameter of 15 cm and then cultured for 48 hours.
The cells in the remaining two dishes were collected, suspended in a solution (20 mM HEPES (pH 7.4), 2% TrironX-100), then ultrasonicated for a short time period, thereby preparing cell lysate. The protein concentration of the cell lysate was measured using a micro BCA protein assay reagent kit (manufactured by PIERCE).
The enzymatic activities of luciferase and α1,3-fucosyltransferase were measured using the cell lysate. […]
Each of the substrates was allowed to react in assay solution with or without GDP-Fuc (sugar donator), then analyzed with HPLC. […]
The products were detected using a fluorescent spectrum photometer FP-920 (JASCO Corporation) at excitation wavelength of 320 nm and emission wavelength of 400 nm. […]

Molecule	Production (%) P1 [1]	Production (%) P2 [1]	Production (%) P3 [1]	Relative activity of α1,3-fucosyltransferases for substrate LNT [2]	major product ([1]; extract of Namalwa cells expressing the enzyme)
B1	7.5%	92.5%	0.0%	–	–
B2	–	–	–	0	–
B3	2.0%	98.0%	0.0%	–	–
B4	8.3%	88.7%	3.0%	–	–
B5	0.0%	0.0%	0.0%	–	no product

From US20080015165A1, “NOVEL POLYPEPTIDE” (KYOWA HAKKO KOGYO CO., LTD., priority 1998, published 2008)
